Measurements taken from patent US20110014213A1 (JURIDICAL FDN THE CHEMO SERO THERAP RES INS, published 2011).

What was measured:
mouse α4 integrin = biological target: T1, mouse α4 integrin (mouse, UniProt Q00651 41-1039); experiment: flow cytometry on CHO/mα4
T1 construct: whole, on cells; Control antigen; also called CHO/mα4
T1 sequence (looked up): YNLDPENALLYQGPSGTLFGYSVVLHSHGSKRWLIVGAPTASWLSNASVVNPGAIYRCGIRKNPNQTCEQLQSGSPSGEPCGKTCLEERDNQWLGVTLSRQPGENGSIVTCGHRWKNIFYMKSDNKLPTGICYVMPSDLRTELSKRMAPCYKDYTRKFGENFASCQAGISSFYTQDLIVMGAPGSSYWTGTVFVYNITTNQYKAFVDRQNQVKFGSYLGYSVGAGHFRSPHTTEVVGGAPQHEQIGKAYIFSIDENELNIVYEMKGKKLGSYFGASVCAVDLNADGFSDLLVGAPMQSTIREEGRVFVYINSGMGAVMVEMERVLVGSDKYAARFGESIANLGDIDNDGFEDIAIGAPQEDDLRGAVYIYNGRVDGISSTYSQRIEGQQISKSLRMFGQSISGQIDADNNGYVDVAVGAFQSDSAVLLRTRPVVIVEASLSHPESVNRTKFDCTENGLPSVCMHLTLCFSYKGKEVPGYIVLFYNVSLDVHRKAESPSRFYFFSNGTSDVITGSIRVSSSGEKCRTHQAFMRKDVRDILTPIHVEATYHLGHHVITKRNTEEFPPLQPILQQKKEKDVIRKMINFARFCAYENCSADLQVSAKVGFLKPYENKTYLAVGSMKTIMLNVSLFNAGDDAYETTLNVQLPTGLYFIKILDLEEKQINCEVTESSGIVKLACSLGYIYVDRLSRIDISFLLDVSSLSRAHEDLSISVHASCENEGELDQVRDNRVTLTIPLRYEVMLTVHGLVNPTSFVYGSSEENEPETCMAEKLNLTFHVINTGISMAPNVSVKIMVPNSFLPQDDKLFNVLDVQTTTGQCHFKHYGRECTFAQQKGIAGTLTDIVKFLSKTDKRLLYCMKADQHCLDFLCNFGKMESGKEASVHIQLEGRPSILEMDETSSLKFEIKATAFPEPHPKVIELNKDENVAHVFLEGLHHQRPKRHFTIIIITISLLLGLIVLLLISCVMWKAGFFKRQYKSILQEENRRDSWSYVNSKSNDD
Method: As a result, the reactivity with mouse α9 and human α9 was confirmed. Although the reactivity with each of CHO and CHO/mα4 was also assessed in the same manner, the reactivity with mouse α4 was not observed (FIG. 6).

human α9 integrin = biological target: T2, human α9 integrin (human, UniProt Q13797 30-1035); experiment: cell-based or functional assay
T2 sequence: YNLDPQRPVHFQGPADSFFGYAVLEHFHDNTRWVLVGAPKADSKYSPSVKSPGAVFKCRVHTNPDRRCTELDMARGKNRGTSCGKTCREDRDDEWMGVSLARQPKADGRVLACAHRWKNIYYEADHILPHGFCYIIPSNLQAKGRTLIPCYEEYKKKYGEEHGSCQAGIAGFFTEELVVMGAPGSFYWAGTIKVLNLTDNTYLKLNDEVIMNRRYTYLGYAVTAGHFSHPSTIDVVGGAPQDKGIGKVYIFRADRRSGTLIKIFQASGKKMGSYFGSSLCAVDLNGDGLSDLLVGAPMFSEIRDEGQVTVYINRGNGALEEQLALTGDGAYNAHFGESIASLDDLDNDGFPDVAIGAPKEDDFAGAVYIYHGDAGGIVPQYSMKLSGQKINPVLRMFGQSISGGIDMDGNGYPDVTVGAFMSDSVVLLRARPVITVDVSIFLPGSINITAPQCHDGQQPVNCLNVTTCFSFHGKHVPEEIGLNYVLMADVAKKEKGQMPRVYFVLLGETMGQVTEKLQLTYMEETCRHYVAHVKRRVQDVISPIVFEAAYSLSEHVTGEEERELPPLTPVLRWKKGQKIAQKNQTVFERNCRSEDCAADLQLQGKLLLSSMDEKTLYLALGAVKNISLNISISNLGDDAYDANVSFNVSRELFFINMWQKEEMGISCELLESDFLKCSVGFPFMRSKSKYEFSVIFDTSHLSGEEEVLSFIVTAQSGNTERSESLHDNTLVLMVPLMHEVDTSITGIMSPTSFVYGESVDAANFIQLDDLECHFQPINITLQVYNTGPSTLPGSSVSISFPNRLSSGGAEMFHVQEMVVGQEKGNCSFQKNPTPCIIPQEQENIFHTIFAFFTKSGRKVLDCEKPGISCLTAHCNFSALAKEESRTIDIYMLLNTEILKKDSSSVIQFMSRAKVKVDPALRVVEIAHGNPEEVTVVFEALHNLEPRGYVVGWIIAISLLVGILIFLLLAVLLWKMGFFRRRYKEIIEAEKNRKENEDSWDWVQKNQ

binding result (mouse α4 integrin): no binding
IC50 of inhibition of α9-dependent cell adhesion (human α9 integrin): 48.5 µg/mL
B1: MA9-413 scFv-Fc (Fc fusion)
scFv: EVQLVESGGGVVRPGGSLRLSCAASGFAFGDYGMSWVRQAPGKGLEWVSGINWNGGSTGYADSVKGRFTTSRDNAKNSLYLQMNSLRAEDTALYYCARDENYDILTGYYYYGMDVWGQGTTVTVSSGGGGSGGGGSGGGGSQSVVTQPPSVSAAPGQKVTISCSGSSSNIGNNYVSWYQQLPGTAPKLLIYDNNKRPSGIPDRFSASKSGTSATLGITGLQTGDEADYYCGTWDSSLTVWAFGGGTKLTVLG
notes: Divalent scFv-Fc with mouse IgG1 Fc, expressed in CHO-DG44; also called ANM-2; not shown: Fc region of mouse IgG1 and its junction to the scFv
